Test results as given in patent US7138262.

Target: T1, mannose receptor on mouse J774E macrophage cells (mouse) (UniProt Q61830)
T1 sequence (looked up): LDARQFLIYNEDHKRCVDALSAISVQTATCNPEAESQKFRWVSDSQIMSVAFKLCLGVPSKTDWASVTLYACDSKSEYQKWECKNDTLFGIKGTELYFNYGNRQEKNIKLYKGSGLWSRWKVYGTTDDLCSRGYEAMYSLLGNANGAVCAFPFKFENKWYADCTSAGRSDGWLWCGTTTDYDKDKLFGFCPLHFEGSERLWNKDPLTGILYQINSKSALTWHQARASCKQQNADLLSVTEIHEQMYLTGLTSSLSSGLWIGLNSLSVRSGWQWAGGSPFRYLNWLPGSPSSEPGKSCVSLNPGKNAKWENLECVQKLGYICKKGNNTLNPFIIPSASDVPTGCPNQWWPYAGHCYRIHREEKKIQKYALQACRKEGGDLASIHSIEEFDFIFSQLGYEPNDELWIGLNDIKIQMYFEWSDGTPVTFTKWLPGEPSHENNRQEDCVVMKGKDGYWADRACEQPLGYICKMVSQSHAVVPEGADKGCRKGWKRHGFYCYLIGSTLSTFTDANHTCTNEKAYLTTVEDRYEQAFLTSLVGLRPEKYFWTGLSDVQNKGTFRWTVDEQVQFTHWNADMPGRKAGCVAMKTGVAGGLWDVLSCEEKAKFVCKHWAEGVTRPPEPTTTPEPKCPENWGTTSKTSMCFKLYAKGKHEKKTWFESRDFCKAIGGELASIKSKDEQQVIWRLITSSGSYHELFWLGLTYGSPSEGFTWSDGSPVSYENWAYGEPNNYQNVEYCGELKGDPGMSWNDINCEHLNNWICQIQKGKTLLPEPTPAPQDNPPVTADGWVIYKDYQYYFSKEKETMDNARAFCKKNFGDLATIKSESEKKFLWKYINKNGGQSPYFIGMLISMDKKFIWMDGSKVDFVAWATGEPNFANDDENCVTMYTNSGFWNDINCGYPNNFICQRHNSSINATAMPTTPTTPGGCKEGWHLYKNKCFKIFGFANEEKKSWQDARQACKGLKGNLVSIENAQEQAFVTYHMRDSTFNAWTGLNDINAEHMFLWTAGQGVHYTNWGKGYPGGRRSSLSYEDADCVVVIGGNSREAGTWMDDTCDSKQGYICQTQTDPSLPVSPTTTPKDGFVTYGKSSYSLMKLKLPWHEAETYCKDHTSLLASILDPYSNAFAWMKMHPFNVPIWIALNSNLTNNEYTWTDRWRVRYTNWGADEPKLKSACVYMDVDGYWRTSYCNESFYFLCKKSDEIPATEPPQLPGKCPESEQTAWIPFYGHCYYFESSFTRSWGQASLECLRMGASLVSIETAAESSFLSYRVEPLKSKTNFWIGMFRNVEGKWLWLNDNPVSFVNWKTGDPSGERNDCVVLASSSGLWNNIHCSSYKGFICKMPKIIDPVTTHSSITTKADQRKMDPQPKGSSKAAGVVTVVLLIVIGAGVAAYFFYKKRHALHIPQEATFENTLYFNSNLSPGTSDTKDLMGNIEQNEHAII
Test: cell-based or functional assay

| Binder | Inhibition (%) of uptake into J774E cells by mannan [%] | Internalization into J774E cells in the presence of 2 µg/mL mannan: glucocerebrosidase activity (Units/mg cell lysate), absolute (Units/mg cell lysate) | Internalization into J774E cells in the presence of 2 µg/mL mannan: glucocerebrosidase activity (Units/mg cell lysate), background corrected (Units/mg cell lysate) | Internalization into J774E cells: glucocerebrosidase activity (Units/mg cell lysate), absolute (Units/mg cell lysate) | Internalization into J774E cells: glucocerebrosidase activity (Units/mg cell lysate), background corrected (Units/mg cell lysate) | Uptake into J774E cells, fold over background [fold] | Uptake into J774E cells relative to GA-GCB from swainsonine treated cells [fold] |
| --- | --- | --- | --- | --- | --- | --- | --- |
| Gene-Activated GCB (GA-GCB) from untreated HT-1080 cells (enzyme, N-linked glycans as processed by untreated HT-1080 cells (no mannosidase inhibitor)) ARPCIPKSFGYSSVVCVCNATYCDSFDPPTFPALGTFSRYESTRSGRRMELSMGPIQANHTGTGLLLTLQPEQKFQKVKGFGGAMTDAAALNILALSPPAQNLLLKSYFSEEGIGYNIIRVPMASCDFSIRTYTYADTPDDFQLHNFSLPEEDTKLKIPLIHRALQLAQRPVSLLASPWTSPTWLKTNGAVNGKGSLKGQPGDIYHQTWARYFVKFLDAYAEHKLQFWAVTAENEPSAGLLSGYPFQCLGFTPEHQRDFIARDLGPTLANSTHHNVRLLMLDDQRLLLPHWAKVVLTDPEAAKYVHGIAVHWYLDFLAPAKATLGETHRLFPNTMLFASEACVGSKFWEQSVRLGSWDRGMQYSHSIITNLLYHVVGWTDWNLALNPEGGPNWVRNFVDSPIIVDITKDTFYKQPMFYHLGHFSKFIPEGSQRVGLVASQKNDLDAVALMHPDGSAVVVVLNRSSKDVPLTIKDPAVGFLETISPGYSIHTYLWRRQ | 53 | 1680 | 1020 | 2820 | 2160 | 3 | – |
| Gene-Activated GCB (GA-GCB) from HT-1080 cells treated with swainsonine (1 µg/mL) (enzyme, N-linked glycans not trimmed by Golgi mannosidase II (cells treated with the class 2 mannosidase inhibitor swainsonine, 1 µg/mL)) ARPCIPKSFGYSSVVCVCNATYCDSFDPPTFPALGTFSRYESTRSGRRMELSMGPIQANHTGTGLLLTLQPEQKFQKVKGFGGAMTDAAALNILALSPPAQNLLLKSYFSEEGIGYNIIRVPMASCDFSIRTYTYADTPDDFQLHNFSLPEEDTKLKIPLIHRALQLAQRPVSLLASPWTSPTWLKTNGAVNGKGSLKGQPGDIYHQTWARYFVKFLDAYAEHKLQFWAVTAENEPSAGLLSGYPFQCLGFTPEHQRDFIARDLGPTLANSTHHNVRLLMLDDQRLLLPHWAKVVLTDPEAAKYVHGIAVHWYLDFLAPAKATLGETHRLFPNTMLFASEACVGSKFWEQSVRLGSWDRGMQYSHSIITNLLYHVVGWTDWNLALNPEGGPNWVRNFVDSPIIVDITKDTFYKQPMFYHLGHFSKFIPEGSQRVGLVASQKNDLDAVALMHPDGSAVVVVLNRSSKDVPLTIKDPAVGFLETISPGYSIHTYLWRRQ | 67 | 2040 | 1380 | 4790 | 4130 | 7 | – |
| Gene-Activated GCB (GA-GCB) from HT-1080 cells treated with kifunensine (1 µg/mL) (enzyme, N-linked high mannose glycans (cells treated with the class 1 mannosidase inhibitor kifunensine, 1 µg/mL)) ARPCIPKSFGYSSVVCVCNATYCDSFDPPTFPALGTFSRYESTRSGRRMELSMGPIQANHTGTGLLLTLQPEQKFQKVKGFGGAMTDAAALNILALSPPAQNLLLKSYFSEEGIGYNIIRVPMASCDFSIRTYTYADTPDDFQLHNFSLPEEDTKLKIPLIHRALQLAQRPVSLLASPWTSPTWLKTNGAVNGKGSLKGQPGDIYHQTWARYFVKFLDAYAEHKLQFWAVTAENEPSAGLLSGYPFQCLGFTPEHQRDFIARDLGPTLANSTHHNVRLLMLDDQRLLLPHWAKVVLTDPEAAKYVHGIAVHWYLDFLAPAKATLGETHRLFPNTMLFASEACVGSKFWEQSVRLGSWDRGMQYSHSIITNLLYHVVGWTDWNLALNPEGGPNWVRNFVDSPIIVDITKDTFYKQPMFYHLGHFSKFIPEGSQRVGLVASQKNDLDAVALMHPDGSAVVVVLNRSSKDVPLTIKDPAVGFLETISPGYSIHTYLWRRQ | 73 | 2980 | 2320 | 9180 | 8530 | 14 | 2 |
